Results reported in publication PMC6937562.

Molecular target: C3d (human), P01024
Test: SPR; homemade HJEM2 chip, 61 RU C3d amine-coupled; FH flowed (2 μM to 3.9 nM); Biacore T200, 25 °C, HBS-P pH 7.4; 1:1 steady-state model
Conditions: remark: other sources report otherwise

Sequence of C3d (human), P01024 (P01024 1002-1303): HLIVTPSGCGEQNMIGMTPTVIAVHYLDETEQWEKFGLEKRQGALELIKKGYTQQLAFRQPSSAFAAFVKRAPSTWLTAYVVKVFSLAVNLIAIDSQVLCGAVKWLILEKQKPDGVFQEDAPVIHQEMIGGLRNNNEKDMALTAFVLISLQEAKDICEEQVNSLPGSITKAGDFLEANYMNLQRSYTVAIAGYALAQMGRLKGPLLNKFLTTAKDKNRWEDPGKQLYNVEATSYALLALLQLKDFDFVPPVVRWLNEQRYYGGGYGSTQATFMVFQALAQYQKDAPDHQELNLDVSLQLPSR

B1: factor H, P08603 19-1231 (natural protein)
chain: EDCNELPPRRNTEILTGSWSDQTYPEGTQAIYKCRPGYRSLGNVIMVCRKGEWVALNPLRKCQKRPCGHPGDTPFGTFTLTGGNVFEYGVKAVYTCNEGYQLLGEINYRECDTDGWTNDIPICEVVKCLPVTAPENGKIVSSAMEPDREYHFGQAVRFVCNSGYKIEGDEEMHCSDDGFWSKEKPKCVEISCKSPDVINGSPISQKIIYKENERFQYKCNMGYEYSERGDAVCTESGWRPLPSCEEKSCDNPYIPNGDYSPLRIKHRTGDEITYQCRNGFYPATRGNTAKCTSTGWIPAPRCTLKPCDYPDIKHGGLYHENMRRPYFPVAVGKYYSYYCDEHFETPSGSYWDHIHCTQDGWSPAVPCLRKCYFPYLENGYNQNYGRKFVQGKSIDVACHPGYALPKAQTTVTCMENGWSPTPRCIRVKTCSKSSIDIENGFISESQYTYALKEKAKYQCKLGYVTADGETSGSITCGKDGWSAQPTCIKSCDIPVFMNARTKNDFTWFKLNDTLDYECHDGYESNTGSTTGSIVCGYNGWSDLPICYERECELPKIDVHLVPDRKKDQYKVGEVLKFSCKPGFTIVGPNSVQCYHFGLSPDLPICKEQVQSCGPPPELLNGNVKEKTKEEYGHSEVVEYYCNPRFLMKGPNKIQCVDGEWTTLPVCIVEESTCGDIPELEHGWAQLSSPPYYYGDSVEFNCSESFTMIGHRSITCIHGVWTQLPQCVAIDKLKKCKSSNLIILEEHLKNKKEFDHNSNIRYRCRGKEGWIHTVCINGRWDPEVNCSMAQIQLCPPPPQIPNSHNMTTTLNYRDGEKVSVLCQENYLIQEGEEITCKDGRWQSIPLCVEKIPCSQPPQIEHGTINSSRSSQESYAHGTKLSYTCEGGFRISEENETTCYMGKWSSPPQCEGLPCKSPPEISHGVVAHMSDSYQYGEEVTYKCFEGFGIDGPAIAKCLGEKWSHPPSCIKTDCLSLPSFENAIPMGEKKDVYKAGEQVTYTCATYYKMDGASNVTCINSRWTGRPTCRDTSCVNPPTVQNAYIVSRQMSKYPSGERVRYQCRSPYEMFGDEEVMCLNGNWTEPPQCKDSTGKCGPPPPIDNGDITSFPLSVYAPASSVEYQCQNLYQLEGNKRITCRNGQWSEPPKCLHPCVISREIMENYNIALRWTAKQKLYSRTGESVEFVCKRGYRLSSRSHTLRTTCWDGKLEYPTCAKR
- Kd: 640 nM
